Here are results for one substance from FireProtDB (doi:10.1021/bi011146t).

For the data set the following is noted: Alicyclobacillus acidocaldarius subsp. acidocaldarius, pH 7.5, 20 °C, CD, sodium phosphate 20 mM, reversible: no.

wild type (from UniProt Q7SIG1): under “GdnHCl”, the denaturant m value is 2.08 kcal/mol/M, the “denaturant midpoint (higher = more stable)” value is 1.9 M and the unfolding free energy came to 4.3 kcal/mol. Further, for the setting “Urea”, the denaturant m value came to 2.63 kcal/mol/M, the “denaturant midpoint (higher = more stable)” value turned out to be 5.9 M and the unfolding free energy is 15.1 kcal/mol.
